# Experimental data from paper PMC3458246 (Scientific Reports, 2012).
# B1: Death Associated Protein Kinase 1 (DAPK1) K42W, HA tagged, kinase dead (enzyme, human, UniProt P53355 1-1430, looked up)
# chain: MTVFRQENVDDYYDTGEELGSGQFAVVKKCREKSTGLQYAAWFIKKRRTKSSRRGVSREDIEREVSILKEIQHPNVITLHEVYENKTDVILILELVAGGELFDFLAEKESLTEEEATEFLKQILNGVYYLHSLQIAHFDLKPENIMLLDRNVPKPRIKIIDFGLAHKIDFGNEFKNIFGTPEFVAPEIVNYEPLGLEADMWSIGVITYILLSGASPFLGDTKQETLANVSAVNYEFEDEYFSNTSALAKDFIRRLLVKDPKKRMTIQDSLQHPWIKPKDTQQALSRKASAVNMEKFKKFAARKKWKQSVRLISLCQRLSRSFLSRSNMSVARSDDTLDEEDSFVMKAIIHAINDDNVPGLQHLLGSLSNYDVNQPNKHGTPPLLIAAGCGNIQILQLLIKRGSRIDVQDKGGSNAVYWAARHGHVDTLKFLSENKCPLDVKDKSGEMALHVAARYGHADVAQLLCSFGSNPNIQDKEEETPLHCAAWHGYYSVAKALCEAGCNVNIKNREGETPLLTASARGYHDIVECLAEHGADLNACDKDGHIALHLAVRRCQMEVIKTLLSQGCFVDYQDRHGNTPLHVACKDGNMPIVVALCEANCNLDISNKYGRTPLHLAANNGILDVVRYLCLMGASVEALTTDGKTAEDLARSEQHEHVAGLLARLRKDTHRGLFIQQLRPTQNLQPRIKLKLFGHSGSGKTTLVESLKCGLLRSFFRRRRPRLSSTNSSRFPPSPLASKPTVSVSINNLYPGCENVSVRSRSMMFEPGLTKGMLEVFVAPTHHPHCSADDQSTKAIDIQNAYLNGVGDFSVWEFSGNPVYFCCYDYFAANDPTSIHVVVFSLEEPYEIQLNQVIFWLSFLKSLVPVEEPIAFGGKLKNPLQVVLVATHADIMNVPRPAGGEFGYDKDTSLLKEIRNRFGNDLHISNKLFVLDAGASGSKDMKVLRNHLQEIRSQIVSVCPPMTHLCEKIISTLPSWRKLNGPNQLMSLQQFVYDVQDQLNPLASEEDLRRIAQQLHSTGEINIMQSETVQDVLLLDPRWLCTNVLGKLLSVETPRALHHYRGRYTVEDIQRLVPDSDVEELLQILDAMDICARDLSSGTMVDVPALIKTDNLHRSWADEEDEVMVYGGVRIVPVEHLTPFPCGIFHKVQVNLCRWIHQQSTEGDADIRLWVNGCKLANRGAELLVLLVNHGQGIEVQVRGLETEKIKCCLLLDSVCSTIENVMATTLPGLLTVKHYLSPQQLREHHEPVMIYQPRDFFRAQTLKETSLTNTMGGYKESFSSIMCFGCHDVYSQASLGMDIHASDLNLLTRRKLSRLLDPPDPLGKDWCLLAMNLGLPDLVAKYNTSNGAPKDFLPSPLHALLREWTTYPESTVGTLMSKLRELGRRDAADFLLKASSVFKINLDGNGQEAYASSCNSGTSYNSISSVVSR
# Molecular target: the molecule itself
# Assay: SEC
protein,measurement,value
B1,stoichiometry N,2
